Assays:
[1] = target: T1, human Scribble PDZ3 domain (1005-1094) (human, UniProt Q14160 1005-1094); experiment: ITC
T1 sequence (looked up): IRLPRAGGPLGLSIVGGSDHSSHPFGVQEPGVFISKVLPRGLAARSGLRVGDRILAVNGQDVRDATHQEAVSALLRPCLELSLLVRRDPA

[2] = target: human Scribble PDZ1 domain (728-815) (human, UniProt Q14160 728-815); experiment: ITC
Sequence of human Scribble PDZ1 domain (728-815) (Q14160 728-815): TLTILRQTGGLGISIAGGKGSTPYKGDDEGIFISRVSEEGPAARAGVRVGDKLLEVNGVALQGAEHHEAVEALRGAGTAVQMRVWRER

WRSRRRETAL [HPV33 E6 C-terminal PBM 10-mer peptide (WRSRRRETAL)]
binding result [1]: binds | binding result [2]: binds

RLQRRRETQV [HPV18 E6 C-terminal PBM 10-mer peptide (RLQRRRETQV)]
binding result [1]: binds

SSRTRRETQL [HPV16 E6 C-terminal PBM 10-mer peptide (SSRTRRETQL)]
Kd [2]: 9.4 µM

WRRPRTETQV [HPV31 E6 C-terminal PBM 10-mer peptide (WRRPRTETQV)]
binding result [1]: binds | binding result [2]: binds

TSRQATESTV [HPV66 E6 C-terminal PBM 10-mer peptide (TSRQATESTV)]
binding result [1]: binds | binding result [2]: binds

RTRQRNETQV [HPV51 E6 C-terminal PBM 10-mer peptide (RTRQRNETQV)]
binding result [1]: binds | binding result [2]: binds

RRRIRRETQV [HPV70 E6 C-terminal PBM 10-mer peptide (RRRIRRETQV)]
binding result [1]: binds | binding result [2]: binds

Reference: publication doi:10.1101/2022.10.12.511839 (bioRxiv, 2022)
